Data: patent US20120141382, “APTAMER MODULATORS OF COMPLEMENT PROTEIN C3 AND BIOLOGICALLY ACTIVE PROTEOLYTIC PRODUCTS THEREOF” (Research Foundation of State University of New York at …, published 2012)

Columns and labels:
Complement C3b [1] = target: T1, Complement C3b (Homo sapiens, UniProt P01024;P01024 P01024:23-667,P01024:749-1663); test: EMSA; retarded band; settings: tags: Quidel; label: 32P-CTP uniform; hairpin with apical loop and internal loop
Complement iC3b [2] = target: T2, Complement iC3b (Homo sapiens, UniProt P01024;P01024;P01024 P01024:23-667,P01024:749-1303,P01024:1321-1663); test: EMSA; retarded band; settings: tags: Calbiochem; label: 32P-CTP uniform; hairpin with apical loop and internal loop
Complement C3 [3] = target: T3, Complement C3 (Homo sapiens, UniProt P01024;P01024 P01024:23-667,P01024:672-1663); test: EMSA; retarded band; 2.5 mM MgCl2 gel, 4 C; settings: tags: Calbiochem; label: 32P-CTP uniform; hairpin with apical loop and internal loop
Complement C3 [4] = target: T3, Complement C3; test: filter; 20 mM Tris-HCl pH 7.6, 150 mM NaCl, 10 mM MgCl2; minimized version may have been used; settings: tags: Calbiochem; label: 32P-CTP uniform
Method: (§1) Initially, RNA was heated to 65° C. for 10 minutes then switched to 37° C. for an additional 10 minutes before the addition of protein. The reactions were allowed to equilibrate for 15-20 minutes at ambient temperature before being subjected to Electrophoretic Mobility Shift Assay (“EMSA”) or filter binding.
(§2) For filter binding, the above-mentioned reaction mixture was immobilized on nitrocellulose (Millipore) using a manifold (Millipore) or a Bio-Dot SF (slot format) Microfiltration System (Bio-Rad, Hercules, Calif.). The nitrocellulose membrane was first soaked in binding buffer containing 20 mM Tris-Cl (pH 7.6), 150 mM NaCl, 10 mM MgCl₂. Nitrocellulose and two pieces of 3M Whatmann filter paper (3M) were assembled in the manifold as per company recommendations. Each well was washed with 1 ml of binding buffer. Samples were loaded in the wells and vacuum was applied to bind the complex, then each well was washed with 2 ml of binding buffer. The nitrocellulose membrane was then air dried and exposed to a phosphor screen (GE Healthcare) for 1 hour. The image was scanned using a Typhoon imager and ImageQuant software and the data was analyzed.

Complement C3b [5] = target: T1, Complement C3b; test: as above; settings: tags: Quidel; label: 32P-CTP uniform
Method: as §1, §2

Complement iC3b [6] = target: T2, Complement iC3b; test: as above; settings: tags: Calbiochem; label: 32P-CTP uniform
Method: as §1, §2

Complement iC3b [7] = target: T2, Complement iC3b; test: filter; no binding by filter assay and EMSA; settings: tags: Calbiochem; label: 32P-CTP uniform
Method: as §1, §2

Complement C3b [8] = target: T1, Complement C3b; test: filter; 20 mM Tris-HCl pH 7.6, 150 mM NaCl, 10 mM MgCl2; settings: tags: Quidel; label: 32P-CTP uniform
Method: as §1, §2

Complement C3 [9] = target: T3, Complement C3; test: filter; 20 mM Tris-HCl pH 7.6, 150 mM NaCl, 10 mM MgCl2; does not compete with AptC3-1; settings: tags: Calbiochem; label: 32P-CTP uniform
Method: as §1, §2

T2 sequence (P01024 23-667, chain 1 of 3): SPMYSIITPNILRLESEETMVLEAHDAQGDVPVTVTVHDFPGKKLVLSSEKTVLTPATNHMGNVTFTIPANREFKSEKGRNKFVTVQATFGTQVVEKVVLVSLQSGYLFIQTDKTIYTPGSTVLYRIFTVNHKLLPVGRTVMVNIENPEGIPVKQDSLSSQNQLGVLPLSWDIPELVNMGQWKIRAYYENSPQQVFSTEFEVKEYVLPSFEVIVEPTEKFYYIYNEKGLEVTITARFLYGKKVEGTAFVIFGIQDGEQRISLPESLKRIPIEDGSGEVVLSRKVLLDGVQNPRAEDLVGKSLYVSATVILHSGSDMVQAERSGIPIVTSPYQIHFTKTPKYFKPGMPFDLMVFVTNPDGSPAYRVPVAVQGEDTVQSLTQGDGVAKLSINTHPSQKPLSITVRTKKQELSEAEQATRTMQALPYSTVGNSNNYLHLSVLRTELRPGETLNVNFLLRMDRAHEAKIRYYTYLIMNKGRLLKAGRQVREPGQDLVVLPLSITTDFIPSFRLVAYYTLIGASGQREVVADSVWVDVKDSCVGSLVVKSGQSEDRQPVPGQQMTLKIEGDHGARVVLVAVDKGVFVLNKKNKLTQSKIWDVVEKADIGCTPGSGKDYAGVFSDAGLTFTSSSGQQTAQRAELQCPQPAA
T2 sequence (P01024 749-1303, chain 2 of 3): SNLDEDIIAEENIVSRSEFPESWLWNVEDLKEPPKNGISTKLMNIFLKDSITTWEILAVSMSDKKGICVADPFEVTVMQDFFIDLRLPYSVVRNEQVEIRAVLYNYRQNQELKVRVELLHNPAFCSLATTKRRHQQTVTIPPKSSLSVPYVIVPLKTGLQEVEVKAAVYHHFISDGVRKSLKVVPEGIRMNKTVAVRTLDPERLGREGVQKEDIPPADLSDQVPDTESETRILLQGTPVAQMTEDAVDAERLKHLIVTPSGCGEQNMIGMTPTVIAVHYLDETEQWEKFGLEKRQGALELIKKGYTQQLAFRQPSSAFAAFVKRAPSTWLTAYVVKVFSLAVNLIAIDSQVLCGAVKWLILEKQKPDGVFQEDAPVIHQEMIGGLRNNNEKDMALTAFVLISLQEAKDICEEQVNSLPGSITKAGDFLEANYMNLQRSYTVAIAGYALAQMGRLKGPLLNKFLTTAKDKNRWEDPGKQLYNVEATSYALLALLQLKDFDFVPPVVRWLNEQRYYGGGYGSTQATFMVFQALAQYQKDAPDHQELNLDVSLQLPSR
T2 sequence (P01024 1321-1663, chain 3 of 3): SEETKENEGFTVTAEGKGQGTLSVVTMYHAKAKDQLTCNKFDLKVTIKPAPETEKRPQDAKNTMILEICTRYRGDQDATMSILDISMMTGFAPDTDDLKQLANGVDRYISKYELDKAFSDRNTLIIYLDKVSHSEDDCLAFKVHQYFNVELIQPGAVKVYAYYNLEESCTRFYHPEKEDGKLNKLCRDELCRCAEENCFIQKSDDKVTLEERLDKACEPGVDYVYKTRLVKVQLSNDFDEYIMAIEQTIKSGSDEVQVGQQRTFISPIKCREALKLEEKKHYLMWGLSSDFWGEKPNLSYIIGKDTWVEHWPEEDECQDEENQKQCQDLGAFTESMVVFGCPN
T1 sequence (P01024 23-667, chain 1 of 2): as the sequence (P01024 23-667, chain 1 of 3) above
T1 sequence (P01024 749-1663, chain 2 of 2): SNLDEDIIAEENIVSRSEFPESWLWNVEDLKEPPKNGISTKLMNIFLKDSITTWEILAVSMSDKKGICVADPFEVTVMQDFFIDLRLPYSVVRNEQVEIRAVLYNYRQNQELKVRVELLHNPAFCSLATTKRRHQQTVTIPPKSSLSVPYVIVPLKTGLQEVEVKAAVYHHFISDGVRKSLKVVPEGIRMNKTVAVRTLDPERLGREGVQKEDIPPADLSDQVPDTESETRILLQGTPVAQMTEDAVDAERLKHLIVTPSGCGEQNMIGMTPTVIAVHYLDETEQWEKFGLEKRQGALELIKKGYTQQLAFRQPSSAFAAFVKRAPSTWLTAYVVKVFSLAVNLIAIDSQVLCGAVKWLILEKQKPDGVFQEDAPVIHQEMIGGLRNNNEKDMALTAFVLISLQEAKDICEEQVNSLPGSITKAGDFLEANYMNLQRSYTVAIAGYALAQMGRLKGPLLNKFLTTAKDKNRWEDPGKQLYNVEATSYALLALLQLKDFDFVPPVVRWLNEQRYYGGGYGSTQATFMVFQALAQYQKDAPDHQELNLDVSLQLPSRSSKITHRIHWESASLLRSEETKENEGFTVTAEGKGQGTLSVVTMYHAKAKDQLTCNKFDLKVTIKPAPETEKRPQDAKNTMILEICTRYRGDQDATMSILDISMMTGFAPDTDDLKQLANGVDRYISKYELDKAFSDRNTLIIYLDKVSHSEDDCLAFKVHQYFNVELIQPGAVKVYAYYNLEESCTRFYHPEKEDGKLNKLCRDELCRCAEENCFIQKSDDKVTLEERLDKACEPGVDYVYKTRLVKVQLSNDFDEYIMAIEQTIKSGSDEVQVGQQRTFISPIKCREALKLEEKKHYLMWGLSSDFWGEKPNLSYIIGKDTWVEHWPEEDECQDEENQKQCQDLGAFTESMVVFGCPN
T3 sequence (P01024 23-667, chain 1 of 2): as the sequence (P01024 23-667, chain 1 of 3) above
T3 sequence (P01024 672-1663, chain 2 of 2): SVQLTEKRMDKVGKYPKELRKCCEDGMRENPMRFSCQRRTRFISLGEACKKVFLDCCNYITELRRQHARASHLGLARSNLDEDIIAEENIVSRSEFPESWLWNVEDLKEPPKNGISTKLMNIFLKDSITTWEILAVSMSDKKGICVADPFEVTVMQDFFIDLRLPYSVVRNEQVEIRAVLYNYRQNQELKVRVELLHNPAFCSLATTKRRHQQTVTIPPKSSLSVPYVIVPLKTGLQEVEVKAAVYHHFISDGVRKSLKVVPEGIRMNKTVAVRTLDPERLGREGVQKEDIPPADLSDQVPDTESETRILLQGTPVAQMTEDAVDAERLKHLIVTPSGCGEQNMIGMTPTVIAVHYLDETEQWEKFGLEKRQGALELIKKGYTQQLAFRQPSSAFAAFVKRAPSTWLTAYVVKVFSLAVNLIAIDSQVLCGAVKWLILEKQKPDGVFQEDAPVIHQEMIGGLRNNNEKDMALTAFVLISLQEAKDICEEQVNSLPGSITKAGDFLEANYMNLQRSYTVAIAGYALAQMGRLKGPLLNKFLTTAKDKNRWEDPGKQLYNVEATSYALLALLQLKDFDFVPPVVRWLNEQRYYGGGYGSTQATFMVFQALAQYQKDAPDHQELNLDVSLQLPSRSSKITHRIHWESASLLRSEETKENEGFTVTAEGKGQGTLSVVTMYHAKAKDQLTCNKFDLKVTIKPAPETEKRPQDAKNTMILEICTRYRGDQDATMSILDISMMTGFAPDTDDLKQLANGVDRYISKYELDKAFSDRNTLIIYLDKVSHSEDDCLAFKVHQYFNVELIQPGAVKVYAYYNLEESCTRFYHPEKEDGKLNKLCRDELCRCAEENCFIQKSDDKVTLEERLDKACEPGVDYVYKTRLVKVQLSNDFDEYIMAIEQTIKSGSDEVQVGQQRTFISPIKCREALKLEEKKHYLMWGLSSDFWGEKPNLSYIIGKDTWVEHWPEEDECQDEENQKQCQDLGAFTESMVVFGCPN

GGGCUAGAAGAAUAUGACGGAUUGACCGUAUCAGGGUAGCCG (ssRNA) [MiniAptC3-1]
binding result (Complement C3b [1]): binds
binding result (Complement iC3b [2]): binds
binding result (Complement C3 [3]): binds

B1: AptC3-1 (ssRNA)
RNA: GGGAGAAUUCAACUGCCAUCUAGGCUAGAAGAAUAUGACGGAUUGACCGUAUCAGGGUAGCCGAAGGGAGACAGAAGUACUACAAGCUUCUGGACUCGGU
Kd (Complement C3 [4]): ~20 nM
Kd (Complement C3b [5]): ~20 nM
Kd (Complement iC3b [6]): ~20 nM

B2: AptC3-2 (ssRNA)
RNA: GGGAGAAUUCAACUGCCAUCUAGGCAAAUCCGCGAGCGCCGGUACCGGUGGCGCAUGCCCACACAGCACUAAACGAGUACUACAAGCUUCUGGACUCGGU
binding result (Complement iC3b [7]): no binding
Kd (Complement C3b [8]): 30 nM
Kd (Complement C3 [9]): 30 nM
